B1: SLC19A2 (parent)
chain: FASLRPSEPFLTPYLLGPDKNLTE
B2: GAGE1 (parent)
chain: RPRRYVQPPEMIGPMRPEQFSDEV
B3: POMT2 (parent)
chain: LRGGGQVLLGWTLHYFPFFLMGRV

Variants of: B1
Test: protein stability index of a GFP-peptide fusion (GPS, HEK-293T) (PSI 1-6); higher = more stable
Conditions: c terminus: a fixed tail appended
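Further: lentivirally expressed fusions sorted by FACS into six bins by GFP to DsRed ratio, PSI derived from sequencing read proportions per bin multiplied by bin number.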

Protein stability index of substitutions, site by site:
L4: M 1.48, F 1.93, Y 1.7, T 2.23, K 1.48, P 2.98, G 2.93, N 1.74, W 3.5, C 1.61, A 1.89, V 1.86, D 2.76, Q 2.15, H 1.69, R 2.24, S 1.61, I 2.44, E 2.65
P6: M 1.36, H 1.54, D 2.17, K 2.13, L 1.8, E 1.65, Q 2.16, I 3.26, N 1.76, C 1.99, V 1.9, R 2.12, G 1.71, S 1.78, F 1.58, T 2.7, A 1.12
R5: E 2.58, L 2.1, V 2.6, S 2.07, N 1.68, T 1.98, A 2.03, Y 2.39, H 2.17, G 1.57, F 2.32, C 1.99, I 2.13, Q 2.34, D 1.73, W 2.43, M 1.94, K 1.88, P 2.36
F1: Y 1.5, Q 4.19, E 4.2, M 3.65, S 4.12, V 3.4, I 3.47, W 2.77, H 3.58, D 4.38, N 3.81, C 2.8, R 3.75, K 3.79, G 4.22, P 3.64, L 2.93, T 3.44, A 4.25
A2: I 1.66, R 3.08, D 3.64, T 1.97, C 1.51, P 2.6, E 3.63, V 2.5, W 2.21, F 2.19, Y 2.05, S 3.02, G 2.74, M 2.36, K 2.84, Q 1.72, N 3.64, H 1.63, L 2.04
S3: H 1.87, T 2.83, R 1.71, F 1.93, P 2.43, Y 2.53, L 1.76, N 2.78, G 1.65, W 1.54, D 3.05, Q 2.61, A 1.59, I 1.69, M 1.74, C 1.23, V 2.65, E 1.45, K 2.78

Variants of: B2
Test: as above
Conditions: c terminus: a fixed tail appended

Protein stability index of substitutions, site by site:
Q7: T 4.01, C 4.04, H 4.14
S21: A 3.69, T 3.71
R4: Y 3.79
E18: I 3.13, K 3.43, T 3.84
R16: W 3.28, K 3.94, N 4.31
E10: Q 3.69
M11: Q 3.84, N 3.38, R 4.22
Q19: T 4.09
P9: W 3.77, E 4.71, L 4, M 3.92
R1: P 3.8
R3: W 2.6
P2: G 3.59
V6: R 3.6, N 3.9
G13: N 4.33, E 3.95
D22: C 3.14
P8: G 4.51, Y 3.52, C 3.61
V24: F 2.74, T 4.17, R 4.47
P14: C 3.68, R 4.31, H 4.31
E23: K 3.65, T 3.75, V 3.77, R 3.85, P 3.63

Variants of: B3
Test: as above
Conditions: c terminus: a fixed tail appended

Protein stability index of substitutions, site by site:
Y15: R 2.02, T 1.39, I 4.09, D 1.72, K 2.92, E 2.31, W 2.28
G3: I 2.59, Q 2.94, R 2.12, N 2.48, S 1.68

Source: the supplement of paper PMC10567573
